In experiment [1] the target is Rap55, T^2-ELISA construct, cell-free expressed from PCR product with N-terminal VSV-G and C-terminal HSV epitope tags (UniProt Q8ND56).
The target is the same in experiment [2]. Description: dual-reporter T^2-ELISA, against the single-reporter HRP control. On the technique in general: ELISA stands for enzyme-linked immunosorbent assay.

“And” between values parts separate entries of the source, which are not always exact repeats. Identical values can stand only once.

Sequence of UniProt Q8ND56 (Q8ND56 1-463, tags or fused parts left off): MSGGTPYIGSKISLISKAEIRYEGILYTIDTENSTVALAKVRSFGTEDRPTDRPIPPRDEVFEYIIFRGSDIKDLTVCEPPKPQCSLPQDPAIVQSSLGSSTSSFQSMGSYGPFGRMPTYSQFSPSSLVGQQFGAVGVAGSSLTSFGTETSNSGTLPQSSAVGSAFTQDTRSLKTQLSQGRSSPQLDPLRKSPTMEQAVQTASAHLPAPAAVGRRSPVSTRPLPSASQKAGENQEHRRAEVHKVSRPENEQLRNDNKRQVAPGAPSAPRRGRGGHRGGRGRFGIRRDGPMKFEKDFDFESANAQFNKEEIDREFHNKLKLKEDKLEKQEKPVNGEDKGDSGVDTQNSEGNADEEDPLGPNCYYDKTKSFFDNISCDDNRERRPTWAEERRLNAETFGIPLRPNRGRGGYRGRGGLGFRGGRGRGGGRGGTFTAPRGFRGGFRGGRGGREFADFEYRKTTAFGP

In the case of “anti-VSV-G horseradish peroxidase (HRP) labeled monoclonal antibody (Clone P5D4, Roche Applied Science)”, the Signal to Noise in experiment [1] was 698 and 760. Further, the Percent of Control (HRP detection, VSV-G tag) in experiment [2] is 96.5%.

Values taken from patent US8852956.
